Several values for one entry are separate records, joined by “and”; a condition that tells them apart may be missing. Identical values can stand only once.
The molecules below were run on steviol glycoside (assay: steviol glycoside bioconversion by E. coli expressing individual mutations of UGT SEQ ID NO: 15). Settings: fold improvement of % conversion vs parent UGT SEQ ID NO: 15; stevia leaf extract and glucose fed; 37° C., 48 hr.
Assay type: cell-based
Method: Fold improvement is with respect to % steviol glycoside conversion of the parent UGT enzyme of SEQ ID NO: 15. SEQ ID NO: 16 has the following mutations from SEQ ID NO: 15: M152A, S153A. Stevia leaf extract and glucose were fed to the bioconversion strains. Bioconversion took place at 37° C. for 48 hr. Data were quantified by reverse phase LC DAD to quantify conversion of steviol glycosides.
Fold improvement (FI) is with respect to % steviol glycoside conversion.

Molecule	FI % Stevioside −> rebE	FI % rebA −> rebD
M425S: mutation to UGT enzyme of SEQ ID NO: 15 (protein) MARRTKNSSGMSLAERFWLTLSRSSLVVGRSCVEFEPETVPLLSTLRGKPITFLGLMPPLPEGRREDGEDATVRWLDAQPAKSVVYVALGSEVPLGVEKVHELALGLELAGTRFLWALRKPTGVSDADLLPAGFEERTRGRGVVATRWVPQMSILAHAAVGAFLTHCGWNSTIEGLMFGHPLIMLPITGDQGPNARLIEAKNAGLQVARNDGDGSFDREGVAAAIRAVAVEEESSKVFQEKAKKLQEIVADMACHERYIDGFIQQLRSYKDDSGYSSSYAAAAGMHVVICPWLAFGHLLPCLDLAQRLASRGHRVSFVSTPRNISRLPPVRPALAPLVAFVALPLPRVEGLPDGAESTNDVPHDRPDMVELHRRAFDGLAAPFSEFLGTACADWVIVDSFHHWAAAAALEHKVPCAMMFLGSAESIASIADERLEHAETESPAAAGQGRPAAAPTFEVARMKLIR	1.03	1.02
L298F: mutation to UGT enzyme of SEQ ID NO: 15 (protein) MARRTKNSSGMSLAERFWLTLSRSSLVVGRSCVEFEPETVPLLSTLRGKPITFLGLMPPLPEGRREDGEDATVRWLDAQPAKSVVYVALGSEVPLGVEKVHELALGLELAGTRFLWALRKPTGVSDADLLPAGFEERTRGRGVVATRWVPQMSILAHAAVGAFLTHCGWNSTIEGLMFGHPLIMLPITGDQGPNARLIEAKNAGLQVARNDGDGSFDREGVAAAIRAVAVEEESSKVFQEKAKKLQEIVADMACHERYIDGFIQQLRSYKDDSGYSSSYAAAAGMHVVICPWLAFGHFLPCLDLAQRLASRGHRVSFVSTPRNISRLPPVRPALAPLVAFVALPLPRVEGLPDGAESTNDVPHDRPDMVELHRRAFDGLAAPFSEFLGTACADWVIVDSFHHWAAAAALEHKVPCAMMFLGSAEMIASIADERLEHAETESPAAAGQGRPAAAPTFEVARMKLIR	1.01	0.97
G96M: mutation to UGT enzyme of SEQ ID NO: 15 (protein) MARRTKNSSGMSLAERFWLTLSRSSLVVGRSCVEFEPETVPLLSTLRGKPITFLGLMPPLPEGRREDGEDATVRWLDAQPAKSVVYVALGSEVPLMVEKVHELALGLELAGTRFLWALRKPTGVSDADLLPAGFEERTRGRGVVATRWVPQMSILAHAAVGAFLTHCGWNSTIEGLMFGHPLIMLPITGDQGPNARLIEAKNAGLQVARNDGDGSFDREGVAAAIRAVAVEEESSKVFQEKAKKLQEIVADMACHERYIDGFIQQLRSYKDDSGYSSSYAAAAGMHVVICPWLAFGHLLPCLDLAQRLASRGHRVSFVSTPRNISRLPPVRPALAPLVAFVALPLPRVEGLPDGAESTNDVPHDRPDMVELHRRAFDGLAAPFSEFLGTACADWVIVDSFHHWAAAAALEHKVPCAMMFLGSAEMIASIADERLEHAETESPAAAGQGRPAAAPTFEVARMKLIR	1.03 and 1.10	1.01 and 1.10
S125V: mutation to UGT enzyme of SEQ ID NO: 15 (protein) MARRTKNSSGMSLAERFWLTLSRSSLVVGRSCVEFEPETVPLLSTLRGKPITFLGLMPPLPEGRREDGEDATVRWLDAQPAKSVVYVALGSEVPLGVEKVHELALGLELAGTRFLWALRKPTGVVDADLLPAGFEERTRGRGVVATRWVPQMSILAHAAVGAFLTHCGWNSTIEGLMFGHPLIMLPITGDQGPNARLIEAKNAGLQVARNDGDGSFDREGVAAAIRAVAVEEESSKVFQEKAKKLQEIVADMACHERYIDGFIQQLRSYKDDSGYSSSYAAAAGMHVVICPWLAFGHLLPCLDLAQRLASRGHRVSFVSTPRNISRLPPVRPALAPLVAFVALPLPRVEGLPDGAESTNDVPHDRPDMVELHRRAFDGLAAPFSEFLGTACADWVIVDSFHHWAAAAALEHKVPCAMMFLGSAEMIASIADERLEHAETESPAAAGQGRPAAAPTFEVARMKLIR	1.16	1.13
H402W: mutation to UGT enzyme of SEQ ID NO: 15 (protein) MARRTKNSSGMSLAERFWLTLSRSSLVVGRSCVEFEPETVPLLSTLRGKPITFLGLMPPLPEGRREDGEDATVRWLDAQPAKSVVYVALGSEVPLGVEKVHELALGLELAGTRFLWALRKPTGVSDADLLPAGFEERTRGRGVVATRWVPQMSILAHAAVGAFLTHCGWNSTIEGLMFGHPLIMLPITGDQGPNARLIEAKNAGLQVARNDGDGSFDREGVAAAIRAVAVEEESSKVFQEKAKKLQEIVADMACHERYIDGFIQQLRSYKDDSGYSSSYAAAAGMHVVICPWLAFGHLLPCLDLAQRLASRGHRVSFVSTPRNISRLPPVRPALAPLVAFVALPLPRVEGLPDGAESTNDVPHDRPDMVELHRRAFDGLAAPFSEFLGTACADWVIVDSFHWWAAAAALEHKVPCAMMFLGSAEMIASIADERLEHAETESPAAAGQGRPAAAPTFEVARMKLIR	1.07	1.09
M152A_S153A: SEQ ID NO: 15 with mutations M152A, S153A (protein) MARRTKNSSGMSLAERFWLTLSRSSLVVGRSCVEFEPETVPLLSTLRGKPITFLGLMPPLPEGRREDGEDATVRWLDAQPAKSVVYVALGSEVPLGVEKVHELALGLELAGTRFLWALRKPTGVSDADLLPAGFEERTRGRGVVATRWVPQAAILAHAAVGAFLTHCGWNSTIEGLMFGHPLIMLPITGDQGPNARLIEAKNAGLQVARNDGDGSFDREGVAAAIRAVAVEEESSKVFQEKAKKLQEIVADMACHERYIDGFIQQLRSYKDDSGYSSSYAAAAGMHVVICPWLAFGHLLPCLDLAQRLASRGHRVSFVSTPRNISRLPPVRPALAPLVAFVALPLPRVEGLPDGAESTNDVPHDRPDMVELHRRAFDGLAAPFSEFLGTACADWVIVDSFHHWAAAAALEHKVPCAMMFLGSAEMIASIADERLEHAETESPAAAGQGRPAAAPTFEVARMKLIR	1.32	1.26
P442D: mutation to UGT enzyme of SEQ ID NO: 15 (protein) MARRTKNSSGMSLAERFWLTLSRSSLVVGRSCVEFEPETVPLLSTLRGKPITFLGLMPPLPEGRREDGEDATVRWLDAQPAKSVVYVALGSEVPLGVEKVHELALGLELAGTRFLWALRKPTGVSDADLLPAGFEERTRGRGVVATRWVPQMSILAHAAVGAFLTHCGWNSTIEGLMFGHPLIMLPITGDQGPNARLIEAKNAGLQVARNDGDGSFDREGVAAAIRAVAVEEESSKVFQEKAKKLQEIVADMACHERYIDGFIQQLRSYKDDSGYSSSYAAAAGMHVVICPWLAFGHLLPCLDLAQRLASRGHRVSFVSTPRNISRLPPVRPALAPLVAFVALPLPRVEGLPDGAESTNDVPHDRPDMVELHRRAFDGLAAPFSEFLGTACADWVIVDSFHHWAAAAALEHKVPCAMMFLGSAEMIASIADERLEHAETESDAAAGQGRPAAAPTFEVARMKLIR	1.18	1.19
P442G: mutation to UGT enzyme of SEQ ID NO: 15 (protein) MARRTKNSSGMSLAERFWLTLSRSSLVVGRSCVEFEPETVPLLSTLRGKPITFLGLMPPLPEGRREDGEDATVRWLDAQPAKSVVYVALGSEVPLGVEKVHELALGLELAGTRFLWALRKPTGVSDADLLPAGFEERTRGRGVVATRWVPQMSILAHAAVGAFLTHCGWNSTIEGLMFGHPLIMLPITGDQGPNARLIEAKNAGLQVARNDGDGSFDREGVAAAIRAVAVEEESSKVFQEKAKKLQEIVADMACHERYIDGFIQQLRSYKDDSGYSSSYAAAAGMHVVICPWLAFGHLLPCLDLAQRLASRGHRVSFVSTPRNISRLPPVRPALAPLVAFVALPLPRVEGLPDGAESTNDVPHDRPDMVELHRRAFDGLAAPFSEFLGTACADWVIVDSFHHWAAAAALEHKVPCAMMFLGSAEMIASIADERLEHAETESGAAAGQGRPAAAPTFEVARMKLIR	1.01	1.01
A451R: mutation to UGT enzyme of SEQ ID NO: 15 (protein) MARRTKNSSGMSLAERFWLTLSRSSLVVGRSCVEFEPETVPLLSTLRGKPITFLGLMPPLPEGRREDGEDATVRWLDAQPAKSVVYVALGSEVPLGVEKVHELALGLELAGTRFLWALRKPTGVSDADLLPAGFEERTRGRGVVATRWVPQMSILAHAAVGAFLTHCGWNSTIEGLMFGHPLIMLPITGDQGPNARLIEAKNAGLQVARNDGDGSFDREGVAAAIRAVAVEEESSKVFQEKAKKLQEIVADMACHERYIDGFIQQLRSYKDDSGYSSSYAAAAGMHVVICPWLAFGHLLPCLDLAQRLASRGHRVSFVSTPRNISRLPPVRPALAPLVAFVALPLPRVEGLPDGAESTNDVPHDRPDMVELHRRAFDGLAAPFSEFLGTACADWVIVDSFHHWAAAAALEHKVPCAMMFLGSAEMIASIADERLEHAETESPAAAGQGRPRAAPTFEVARMKLIR	0.99	1.02

What follows are molecules tested on mogrol (assay: primary glycosylation at C3 and C24 hydroxyls of mogrol by cells expressing UGT enzymes). Settings: mogrol fed; 37° C., 48 hrs; LCMS/MS.
Assay type: cell-based, E. coli
Method: Specifically, mogrol was fed to cells expressing various UGT enzymes. Reactions were incubated at 37° C. for 48 hrs. Products were quantified by LCMS/MS with authentic standards of each compound.

Molecule	C3 O-Glucosylation	C24 O-Glucosylation
SEQ ID NO: 83: UGT73C33 (Glycyrrhiza uralensis) (protein, listed as Glycyrrhiza sp.) MAVFQANQPHFVLFPLMAQGHIIPMIDIARLLAQRGAIVTIFTTPKNASRFTSVLSRAVSSGLQIRLVHLHFPSKEAGLPEGCENLDMVASHDMICNIFQAIRMLQKQAEELFETLTPKPSCIISDFCIPWTTQVAEKHHIPRISFHGFSCFCLHCMLKIHTSKVLEGITSESEYFTVPGIPDQIQVTKQQVPGPMIDEMKEFGEQMRDAEIRSYGVIINTFEELEKAYVNDYKKERNGKVWCIGPVSLCNKDGLDKAQRGNKASISEHHCLEWLDLQQPNSVIYVCLGSLCNLTPPQLMELALGLEATKRPFIWVIREGNKFEELEKWISEEGFEERIKGRGLIIRGWAPQVLILSHPSIGGFLTHCGWNSTLEGVTAGVPMVTWPLFADQFLNEKLVTQVLRIGVSLGVDVPLKWGEEEKVGVQVKKEGIEKAICMVMDEGEESKERRERAKELSEMAKRAVEKDGSSHLNMTMLIQDIMQQSSSKVET	No	Yes

— US20260242839A1, “GLYCOSIDE PRODUCT BIOSYNTHESIS AND RECOVERY” (Manus Bio Inc., priority 2023, published 2026)
